The values below come from publication PMC12729873, “Linoleic Hydroperoxides Are Potent Hyperoxidative Agents of Sensitive and Robust Typical 2-Cys Peroxiredoxins” (Antioxidants, 2025).

Common to all, as to assay: purified protein
Series [1] deals with CC(C)(OO)c1ccccc1. The format is biochemical, Pseudomonas aeruginosa. As to conditions: E. coli Trx/TrxR, NADPH 150 µM, HEPES pH 7.4, 37 °C, DTPA 100 µM, azide 1 mM, fit to low-substrate phase only.
Series [2] concerns CC(C)(OO)c1ccccc1. As to conditions: S. cerevisiae Trx1/TrxR1, NADPH 150 µM, HEPES pH 7.4, 37 °C, DTPA 100 µM, azide 1 mM, fit to low-substrate phase only.
Substrate in the series “purified protein”: CC(C)(OO)c1ccccc1
The following applies: E. coli Trx/TrxR, NADPH 150 µM, HEPES pH 7.4, 37 °C, DTPA 100 µM, azide 1 mM, fit to low-substrate phase only.

As a reminder, the Vmax is the top rate of the reaction or transport when substrate is in excess. Usually kcat stands for the number of substrate molecules converted per active site and unit of time at saturation. As a reminder, the kcat/Km is the second-order rate constant that governs catalysis at low substrate concentration. With “PaAhpC (Pseudomonas aeruginosa UCBPP-PA14)”, in the series on CC(C)(OO)c1ccccc1 [1], the Km is 82 (±14) µM, the Vmax came to 34.2 µM/min, the turnover number (kcat) was 0.18 ± 0.01 s⁻¹ and the kcat/Km amounted to 2000 ± 200 M⁻¹ s⁻¹.
Consider HsPrx2 (Homo sapiens), for which, in the series on CC(C)(OO)c1ccccc1 [2], the Km was 57 (±17) µM, the Vmax was 101 µM/min, the kcat turned out to be 0.56 ± 0.09 s⁻¹ and the kcat/Km came out at 9800 ± 1300 M⁻¹ s⁻¹.

B1: SeAhpC (Staphylococcus epidermidis RP62A) (protein)
chain: MSLINKEILPFTAQAYDPKKDEFKEVTQEDFKGSWNVVCFYPADFSFVCPTELEDLQNQYAKLQELGVNVYSVSTDTHFVHKAWHDHSDAISKLEYSMIGDPSQTITRNFDVLDEETGLAQRGTFIIDPDGVVQAAEINADGIGRDASTLVNKIKAAQYVRQHPGEVCPAKWEEGSESLQPGLDLVGKI
As to B1, in “purified protein”, the Km is given as 76 (±10) µM, the Vmax is 35.4 µM/min, the kcat worked out at 0.19 ± 0.01 s⁻¹ and the kcat/Km worked out at 2500 ± 100 M⁻¹ s⁻¹.
